From the nanobody polyreactivity screen of Harvey et al. (2022)

Assay: yeast display, Sf9 membrane polyspecificity reagent, FACS + sequencing; frameworks hold sequencing errors
Method in brief: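 Nanobodies from a synthetic yeast display library (Saccharomyces cerevisiae BJ5465), induced 36–48 hours with galactose, were stained 1 hour at 4 °C with 10% biotinylated, detergent-solubilized Sf9 membrane reagent, enriched on streptavidin microbeads, then FACS-sorted. Anti-HA (expression) and streptavidin (reagent binding) fluorescence set low and high (top ~1%) gates. Polyreactivity labels come from the gate of origin. Genes were colony-PCR amplified, MiSeq 2 × 250 sequenced and filtered by CDR length.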

Row | Sequence | polyreactivity (PSR sort gate)
1 | QVQLVESGGGLVQAGGSLRLSCAASGSIFGDNAMGWYRQAPGKERELVAAISSSGGSTYADSVKGRFTISRDNAKNTVYLQMNSLKPEDTAVYYCATQIAWGTYVINPQMDYWGQGTQVTVSS | low polyreactivity
2 | QLQLEESGGGLVQAGGSLRLSCAASANTIYQYAMGRYRQAPGKERELVAAIDWSGGSTYADSVKGRFTISRDNAKNTVYLQMNSLKPEDTAFYYCNASVKPSNVWSRGYDYWGQGTQVTVSS | low polyreactivity
3 | QVQLVESGGGLVQAGGSLRLSWAASGNTFYGYAMGWYRQAPGKERELVAGIRWSGGSTSYADSVKGRFTISRDNAKNTVYLQMNSLKTEDTAVYYCAAGWYPWGYYSGYISYEYWGQGTQVTVSS | high polyreactivity
4 | QVQLVDSGGGLVQAGPSLRLSCAASGSTFYLYAMGWYRQAPGKERELVAAITFRGSRTYYADSVKGRFTISRDNAKNTVYFQMNSLKPEDTAVYYCAADSYIERAYGSLGVWRYDYWGQGTQVTVSS | low polyreactivity
5 | QVQLVESGGGLVQAGGSLRLSCAASGSIFSSYAMGWYRQAPGKERELVASISSGGSTNYADSVKGRFTISRDNAKNTVYLQMNSLKPEDTAVYYCNVDLYNWRGDSTGYDYWGQGTQVTVSS | low polyreactivity
6 | QVQLVESGGGLVQAGGSLRLSCAASGFTFGFYAMGWYRQAPGKERELVATINYNGGSTYYADSVKGRFTISRDNAKNTVYLEMNSLKPEDTAVYYCATDYGWAPSYWYDSCGQGTQVTVSS | low polyreactivity
7 | HVQLVESGGGLVQAGGSLRLSCASSGSIFWANAMGWYRQAPGKERELVATITSGGRTYYADSVKGRFTISRDNAKNTVYLQMNSLKPEDTAVYYCARVPPQYRWGRRLVYVHVDYWGQGTQVTVSS | low polyreactivity
8 | QVQLVESGGGLVQAGGSLRLSCAASGFTFGFNTMGWYRQAPGKERELVATITSGGSTYYADSVKGRFTISRDNAKNTVYLQMNILKPEDTAVYYCAATAGSPWAKSRYGYWGQGTQVTVSS | low polyreactivity
9 | QVQLVESGGGLVQAGGSLRLSCAAWSIFYLNAMGLYRQAPGKERELVAAISWGGGSTNYADSVKGRFTISRDNAKNTVYLQMNSLKPEDTAVYYCARTPESLSAREFNYWGQGTEVTVSS | low polyreactivity
10 | QVQLVDSGGGLVQAGGSLRLSCAASGSTFQGNTMGWYRQAPGKERELVAAISRSGGITYYADSVKGRFTISRVNAKNTVYLQMNSLKPEDTAVYYCAAKQVFTAGRSVDYWGQGTQVTVSS | high polyreactivity
11 | QDQLVESGGGLVQAGGSLRLSCSASGSTFIRNSKGWYRQATGKERELVAAITTDGSTDYADSVKGRFTISRDNAKNTVYLQMNSLKPEDTAVYYCNAEYRLDALSYDYWGQGTQVTVSS | low polyreactivity
12 | QVQLVESGGGLVQAGGSLRLSCAASGSTFKGYSMGWYRQAPGKERALVAAISRSGTRTYYADSVKGRFTISRDNAKNTVYLHMTILKPEVTAVYYCNKVTGFIAHDNEKGRDYWGQGTQVTVSS | low polyreactivity
13 | QVQLVESGGGLVQAGGSLRLSCAASGLTFQTNAMGWYRQAPGKERELVAAISRRGSSTYYADSVKGRFTISRDNAKNTVYLQMNSLKPEDTAVYYCNAVRYLFIYPRYDYWGQGTQVTVAS | high polyreactivity
14 | QVQLVESGGGLVQAGGSLRLSCAASGSTSGPYAMGWYRTAPGKERELVATISWIGDRTYYADSVKGRFTISRDNAKNTIYLQMNSLKPEDTAVYYCNDDYRGYANLEGDYWGQGTQVTVSS | low polyreactivity
15 | QVQLVESGGGLVQAGGSLRLSCAASGSTLLTYTMGWYRQAPGKERELVASITTSGGSTYADSVKGRFTISRDNAKNTVYLQLNSLKPEDTAVYYCAALYLWYSYHVVYQYDYWGQGTQVTVSS | low polyreactivity
16 | QVQLVESGGGLVQAGGSLRLSCAASGFTFYRYAMGWYRQAPGKERELVATISASGGSTYYADSVKGRFTISRDNAKNTVYLQMISLKPEDTAVYYCAVRTIWRFRYDYWGQGTQVTVSS | high polyreactivity
17 | QVQLVESGGGLVQAGGSLRLSCAASGSTFLNYAMGWYRQAPGKERELVAAISGRGGRTYYADSVKGRFTISRDNAKNTVYLLMNSLKPEDTAVYYCAARKWVSYTSYDYWGQGTQVTVSS | high polyreactivity
18 | QVQLVESGGGLVQAGGSLRLCCAATGSIFPGNAMGWYRQAPGKEMELVATNTWSGGSTYYADSVKGRFTISRDNAKNTVYFQMKSLKPVDTAVYYCKADSSWFYQWKDYGMYDYWGQGTQVTVSS | low polyreactivity
19 | QVQLVESGGGLVQAGGSLRLSCAASGRIFYPYAMGLYRQAPGKEREFVADISSAGSTYYADSVKGRFTISRDNAKNTVYLQMNSLKPEDTAVYYCAADRTSGAYYFRFLYDRDYWGQGTQVTVSS | low polyreactivity
20 | QVQLVESGGGLVQAGGSLGLSCAASGSIFRGYAMGWYIQAPGKERELVAAITSSGGSTNYADSVKGRFTISRDNAKNTVYLQMNSLKPEDTAVYYCAAGVIREKYYIWSDYEYDYWGQGTQVNVSS | low polyreactivity
21 | QVQLVESGGGLVQAGGSLRLSCAASGSIFKRYARGWYRPAPGKERELVAAISWSGGNTYYADSVKGRFTISRDNSKNTVYLQMNSLKPEDTAVYYCAKRYRGGYYYPYNYWGQGTQVTVSS | high polyreactivity
22 | QVQLVESGGGLVQAGGSLRLSCAASGIIFRWYTMGWYRQAPGKERELVAAISTSTGSTYYADSVKGRFTISRDNAKNTVYLQMNSLKPEDTAVYYCAADYAYWNYESYYWGQGTQVTVSS | high polyreactivity

Row | Sequence | polyreactivity (PSR sort gate)
23 | QVQLVESGGGLVQAGGSLRLSCAASGFTFYYYVMGWYRQAPGKERELVAAITNGGSTYYADSVKGRFTISRDNAKNTVYLQMISLKPEDTAVYYCATRQSHWSGEFDYWGQGTQVTVSS | high polyreactivity
24 | QVQLVESGARLVQAGGSLRLSCAPSGSIFAYNAMGWYRQAPGKERELVAAITKSGGSTYYADSVKGRFTISRDHAKNTVYLQMNSLKPEDTAVDYCNVVVPHSISSHGDYWGQGTQVTVSS | low polyreactivity
25 | QVQLVESGGGLVQAGGSLRLSCAASGFTFAVYVMGWYRQAPGKERELVAAISRSGGSTYYADSVKGRFTISRDNAKNTVYLQMNSLKPEDTAVYYCNARVWAKYDYWGQGTQVTVSS | high polyreactivity
26 | QVQLVESGGGLVQEGGSLRLSCAASGSIFGRNVMGWYRQAPGKERELVAAISEGGGRTYYADSVKGRFTISRDNAKNTVYLQMNSLKPEVTAVYYCAAAYFSSGYKYYYWGQGTQVTVSS | high polyreactivity
27 | QVQLVESGGCLLQAGGSLSLSCAASGSTSPANTMGWYRQAPGKEREFVAGISRRGGRTYYADSVKGRFTISRDTAKNTVYLQMNSLKPEDTAVYYSATALIVRGPSRYEYWGHGTQVTVSS | high polyreactivity
28 | QVQLVESGGGLVQAGGSLRLSCAASGNIFDSNAMGWYRQAPGKERELVAAITWSGGSTYYADSVKGRFTISRDNAKNTVYLQMNSLKPEDTAVYYCNRYIRYYAWFGYWGQGTQVTVSS | high polyreactivity
29 | QVQLVETGGGVVQAGGSLRISCAASGRIFLYYTMGWYRQAPGIERELVATIRSGDSTIYADAVKGRFTISRDNAKNTVYLQMNTLTPEDTAVYYCAADWDIFQQGANGAPYDYWGQGTQVTVSS | low polyreactivity
30 | QVQLVESGGGSVQAGGSLRLSCAASGYIFGVYDMGWYRQAPGKERELVAAISSGGSTNYADSVKGRFTISRDNAKNTVYLQMNSLKPEDTAVYYCNADYIFYYEYDYWGQGTQVTVSS | low polyreactivity
31 | QVQLVESGGGLVQAGGSLRLSCAASGLIFAYNAMGWYRQAPGKERELVAAITGGGDGTYYADSVKGRFTISRDNAKNTVYLQMNSLKPEDTAVYYCAADFGNSPYIKVYYYWGQGTQVTVSS | low polyreactivity
32 | QVQLVESGGGLVQAGGSLRLSCAASGLTLKYYAMGWYRQAPGKERELVAAITYSGGSTYYADSVKGRFTFSRDNAKNTVYLQMNSLIPEDTAVFYCNAGPSVTSGYDYDYWGQGTQVTVSS | low polyreactivity
33 | QVQLVESGGGLVQAGGSLRLSCADSGRTFVGNAMGWYRQAPGKGWEFVAAISRSGGSTNYADSVKGRFTISRDNAKNTVYLQMKSLKPEDTAVYYCAARDRFGGIRRYIYWGQGTQVTVSS | high polyreactivity
34 | QVQLEESGGGLVQAGGSLRLSCAASGFTFSTNSMGWYRPAPGKERELVAAISRGGSTNYADSVKGRFTISRDNAKNTVYLQMNSLKPEDTAVYYCNAYQSPDEEEYYWGQGTQVTVSS | low polyreactivity
35 | QVQLVESGGGLVQAGGSLRLSCAASGIILIQNSMGWSRHAPGKERELVAAISTRGGRTYYADSVKGRFTISRDNAKNTVYLQMNSLKPEDTAVYYCAAYRTTPYRDYKMDYWGQGTQVTVSS | high polyreactivity
36 | QVQLVESGGGLVQAGGSLRLSCASSGRTFYLNAMGWYRQAPGKERELVAAISKRGGSTYYADSVKGRFTISRDNAKNTVYLQMNSLKPEDTAVYYCAKGFSFYSPRYDYWGQGTQVTVSS | high polyreactivity
37 | HVQLVESGGGLVQAGGSLRLSCAASGSIFVPYTMGWSRQAPGKERELVAAINSSDDSKFYADSVKGRFTISRDNAKNPVYLQMNSLKPEDTAVYYCAASYYYTIGPYFRKFDWGQGTQVTVSS | low polyreactivity
38 | QVQHVESGGGLVQAGGSLRLSCAASGSIFEDYVMGWYRQAPGKERELVADITSGGTTYYADSVKGRFTISRDNAKNTVYLQMNSLKPEDTAVYYCAAEVDWVPFLLDYWGQGTQVTVSS | low polyreactivity
39 | QVQLVESGGGLVQAGGSLRLSCAASGRTIVIYAMGWYRQAPGKERELVAAIRSGGRTNYADSVKVRFTISRDNAKNTVYLQMNSLIPEDTAVYYCATRGWLRSGYDYWGQGTQVTVSS | high polyreactivity
40 | QVQLVESGGGLVQAGGSLRLSCAASGSTFSYYGMGSYRTAPGKERELVDAIDYSGDSTYDADSVKGRFTISRDNAKNTVYLQMNSLKPEDTAVYYCAADDYPWNRYAYWGQGTQVPVSS | low polyreactivity
41 | QVQLVETGGGLVQAGGSLRLSCAASGTLSSYAMGWYRPAPGTERELVAAISLSGGSTYADSVKGRFTISRDNAKNTVYLQMNSLKPEDTAVYYCAATSSFRYDYWGQGTQVTVSS | low polyreactivity
42 | QVQLVESGGGLVQAGGSLRLSCAASGSTFSYYAMGWYRQAPGKERELVAAISSRGGSTYYADSVKGRFTISRDNAKNTVYLQMNSLKPEDTAVYYCNADHQFRSSVSGDHDYWGQGTQVTVSS | high polyreactivity
43 | QVQLVESGGGLVQAGGSLRLSCAASGGTFSFYAMGWYRQAPGKEREFVAAITASDGSTYYADSVKGRFTSSRDNAKNTVYLQMNSLKPEDTAVYYCAADAYGYKFNSWGQGTQVTVSS | low polyreactivity
